Results reported in the supplement of paper PMC10567573.

B1: TRIB1 (parent)
chain: EIGTSDQIVPEYQEDSDISSFFC
B2: BCL2L13 (parent)
chain: MASSSTVPLGFHYETKYVVLSYLG

Variants of: B1
Test: protein stability index of a GFP-peptide fusion (GPS, HEK-293T) (PSI 1-6); higher = more stable
Details: c terminus: native
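Note: lentivirally expressed fusions sorted by FACS into six bins by GFP to DsRed ratio, PSI derived from sequencing read proportions per bin multiplied by bin number.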

Variant | protein stability index
E1Y | 2.11
E1S | 2.42
E1G | 2.58
E1I | 1.9
E1P | 3.11
E1K | 1.98
E1W | 2.46
E1D | 2.57
E1T | 2.97
E1V | 2.74
E1F | 2.15
E1Q | 2.57
E1M | 2.41
E1A | 2.7
E1R | 2.77
E1L | 2.21
E1N | 2.32
E1H | 1.97
E1C | 2.38
G3H | 2.63
G3E | 2.97
G3C | 2.38
G3D | 2.55

Variant | protein stability index
G3I | 2.42
G3F | 2.32
G3K | 2.65
G3A | 2.64
I2S | 2.94
I2R | 2.59
I2E | 3.64
I2F | 2.59
I2H | 3.45
I2A | 2.86
I2Q | 2.73
I2C | 2.57
I2W | 2.06
I2P | 4.12
I2D | 4.01
I2V | 3.35
I2K | 2.9
I2N | 2.74
I2Y | 2.81
I2T | 2.75
I2L | 3.06
I2M | 3.15
I2G | 3.58

Variants of: B2
Test: as above
Details: c terminus: a fixed tail appended

Variant | protein stability index
V19Q | 1.71
V19P | 2.2
V19W | 1.91
V19S | 2.19
V19Y | 2.63
V19E | 1.7
V19R | 1.41
V19L | 2.29
V19F | 1.5
V19T | 3.32
V19I | 3.19
V19G | 2.09
V19M | 3.27
V19H | 1.73
V19K | 1.34
V19D | 1.45
V19C | 2.34
V19N | 1.94
V19A | 1.99
Y22T | 2.81
Y22A | 1.89
Y22S | 3.81
Y22H | 3
Y22P | 1.47

Variant | protein stability index
Y22R | 1.69
Y22K | 2.37
Y22M | 2.7
Y22Q | 3.03
Y22D | 2.4
Y22L | 3.28
Y22G | 2.51
Y22I | 2.02
Y22C | 2.8
Y22F | 2.49
Y22W | 2.89
Y22N | 1.63
Y22E | 1.85
Y22V | 1.89
Y13N | 1.7
Y13P | 1.84
Y13I | 2.65
Y13L | 2.59
Y13W | 2.16
Y13Q | 1.39
Y13D | 2.35
Y13R | 1.85
Y13T | 2.28
Y13E | 1.59

Variant | protein stability index
Y13F | 3.43
Y13V | 2.51
Y13M | 2.14
Y13H | 2.27
Y13S | 2.07
Y13C | 2.25
Y13K | 1.44
Y13G | 2.14
Y13A | 2.82
K16R | 2.55
K16Y | 3.26
K16G | 2.38
K16P | 1.83
K16D | 3.26
K16E | 4.22
K16V | 2.53
K16W | 2.56
K16H | 1.46
K16A | 2.64
K16Q | 2.6
K16I | 2.74
K16M | 2.61
K16F | 2.32
K16N | 3.56

Variant | protein stability index
K16C | 4.41
K16S | 2.81
K16L | 2.04
Y17A | 2.67
Y17P | 1.95
Y17M | 3.56
Y17K | 2.1
Y17S | 1.66
Y17C | 2.48
Y17T | 1.62
Y17H | 1.95
Y17N | 1.62
Y17Q | 1.84
Y17E | 1.86
Y17R | 1.66
Y17G | 2
Y17D | 1.73
Y17L | 2.22
Y17F | 3.51
E14A | 2.21
E14Y | 2.64
E14W | 3.62
E14N | 2.48
E14T | 2.3

Variant | protein stability index
E14I | 2.82
E14K | 2.72
E14R | 2.14
E14Q | 3.35
E14M | 3.1
E14G | 2.09
E14V | 2.46
E14D | 2.67
E14S | 2.62
E14H | 1.75
E14P | 2.24
E14F | 1.81
L9I | 3.14
L9Q | 2.62
L9H | 2.31
L9R | 1.79
L9V | 2.06
L9N | 3.25
L9G | 2.75
L9M | 2.35
L9Y | 2.57
L9W | 3.66
L9T | 2.45
L9K | 2.57

Variant | protein stability index
L9F | 1.33
L9P | 2.1
L9S | 3.42
L23C | 2.09
L23E | 1.65
L23K | 2.3
L23G | 1.71
L23Q | 1.48
L23M | 3.69
L23Y | 2.46
L23H | 2.59
L23R | 2.21
L23N | 2.18
L23P | 1.71
L23F | 2.12
L23T | 1.44
L23S | 2.34
L23D | 1.63
L23V | 1.93
L23I | 2.11
L23W | 2.76
G24Y | 1.89
G24Q | 2.62
G24K | 1.45

Variant | protein stability index
G24I | 1.75
G24D | 2.38
G24R | 2.06
G24L | 2.98
G24S | 1.97
G24M | 1.84
G24T | 2.13
G24E | 2.05
G24N | 2.1
G24V | 3.35
G24P | 2.71
G24C | 2.21
G24F | 3.97
G24A | 2.8
G24W | 3.89
G24H | 2.42
H12L | 1.49
H12D | 2.39
H12T | 1.81
H12C | 3.05
H12K | 2.23
H12Q | 2.67
H12W | 2.66
H12N | 2.12

Variant | protein stability index
H12G | 2.11
H12M | 2.39
H12E | 2.55
H12R | 1.91
H12P | 2.5
H12I | 2.75
H12Y | 3.26
H12V | 2.67
H12A | 2.3
H12F | 3.51
H12S | 3.12
V18P | 1.91
V18I | 2.81
V18R | 1.88
V18K | 2.31
V18T | 2.88
V18L | 1.88
V18A | 2.24
V18M | 2.55
V18F | 3.21
V18H | 1.88
V18Y | 2.6
V18S | 1.79
V18Q | 1.37

Variant | protein stability index
V18D | 1.89
V18W | 1.84
V18E | 2.02
V18G | 1.53
V18N | 1.56
S21W | 3.36
S21E | 1.24
S21H | 2.27
S21G | 1.62
S21F | 3.84
S21Y | 2.51
S21Q | 3.52
S21I | 2.36
S21A | 3.51
S21P | 2.35
S21C | 3.12
S21T | 2.72
S21K | 1.45
S21N | 2.4
S21R | 3.78
S21D | 2.24
S21L | 3.41
L20A | 2.12
L20Y | 2.88

Variant | protein stability index
L20R | 1.48
L20I | 1.71
L20F | 3.51
L20N | 1.65
L20T | 2.17
L20H | 2.01
L20E | 1.78
L20M | 2.37
L20Q | 2.19
L20C | 2.58
L20S | 1.69
L20W | 2.22
L20D | 2.18
L20V | 2.82
L20K | 2.52
L20G | 1.74
L20P | 1.7
G10M | 2.73
G10R | 3.6
G10S | 2.77
G10L | 2.52
G10V | 2.14
G10D | 2.02
G10K | 3.29

Variant | protein stability index
G10A | 2.01
G10Y | 4.41
G10H | 3.03
G10Q | 1.69
G10I | 1.73
G10E | 2.13
G10W | 2.57
G10T | 3.54
G10F | 2.22
G10N | 2.93
G10C | 2.1
F11L | 2.36
F11E | 1.94
F11S | 1.9
F11R | 1.71
F11T | 1.81
F11N | 2.69
F11A | 2.41
F11Q | 2.85
F11Y | 2.49
F11P | 2.33
F11M | 2.82
F11W | 1.89
F11D | 2.03

Variant | protein stability index
F11G | 1.35
F11K | 2.63
F11H | 1.67
F11C | 2.63
F11I | 2.02
T15P | 2.06
T15S | 1.11
T15E | 2.61
T15H | 1.91
T15V | 3.06
T15R | 1.36
T15Q | 2.84
T15F | 1.5
T15N | 1.75
T15D | 2.03
T15Y | 2.75
T15W | 2.05
T15C | 1.71
T15M | 2.79
T15A | 1.86
T15I | 3.13
T15L | 2.1
T15G | 1.34
T15K | 1.4
